One data set has as its target Puf6p (Saccharomyces cerevisiae, UniProt Q04373 2-656). Put plainly: EMSA; EMSA: 20 mM HEPES pH 7.8, 200 mM NaCl, 2 mM MgCl2, 2 mM DTT, 4% glycerol, 30 or 100 ug/ml yeast tRNA, 5 nM RNA, 20 C; filter binding: 20 mM HEPES pH 7.4-7.5 (7.9 with She3p), 150 mM NaCl, 2 mM MgCl2, 2 mM DTT, 30 ug/ml yeast tRNA, 0.5 nM RNA; pull-down: HNMD buffer, 4 C. The settings on record: protein: recombinant; tags: GST tag (cleaved for EMSA; retained in GST pull-downs); label: 32P; stem-loop.

The target of another data set is T1, She3p (Saccharomyces cerevisiae, UniProt P38272 1-425).
T1 sequence: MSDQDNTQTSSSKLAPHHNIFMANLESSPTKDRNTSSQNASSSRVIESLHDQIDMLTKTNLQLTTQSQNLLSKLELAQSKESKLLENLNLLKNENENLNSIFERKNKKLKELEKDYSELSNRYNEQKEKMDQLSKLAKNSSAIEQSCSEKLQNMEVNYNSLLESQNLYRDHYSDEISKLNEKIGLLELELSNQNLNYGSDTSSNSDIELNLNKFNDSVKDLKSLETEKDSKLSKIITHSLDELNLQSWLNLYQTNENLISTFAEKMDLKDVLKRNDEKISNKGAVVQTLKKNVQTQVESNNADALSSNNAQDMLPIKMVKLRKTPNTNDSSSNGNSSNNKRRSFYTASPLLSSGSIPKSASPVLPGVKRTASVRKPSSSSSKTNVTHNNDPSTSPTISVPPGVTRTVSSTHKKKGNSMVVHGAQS
Put plainly: EMSA; minimal She3p concentration for detection; EMSA: 20 mM HEPES pH 7.8, 200 mM NaCl, 2 mM MgCl2, 2 mM DTT, 4% glycerol, 30 or 100 ug/ml yeast tRNA, 5 nM RNA, 20 C; filter binding: 20 mM HEPES pH 7.4-7.5 (7.9 with She3p), 150 mM NaCl, 2 mM MgCl2, 2 mM DTT, 30 ug/ml yeast tRNA, 0.5 nM RNA; pull-down: HNMD buffer, 4 C. Particulars: protein: recombinant; tags: C-terminal His6; label: 32P; stem-loop. In general terms: Mobility shift assays separate free from complexed probe on a gel.

This note sets out measurements from publication PMC3079584, “A Cytoplasmic Complex Mediates Specific mRNA Recognition and Localization in Yeast”.

Sequence of Puf6p (Q04373 2-656): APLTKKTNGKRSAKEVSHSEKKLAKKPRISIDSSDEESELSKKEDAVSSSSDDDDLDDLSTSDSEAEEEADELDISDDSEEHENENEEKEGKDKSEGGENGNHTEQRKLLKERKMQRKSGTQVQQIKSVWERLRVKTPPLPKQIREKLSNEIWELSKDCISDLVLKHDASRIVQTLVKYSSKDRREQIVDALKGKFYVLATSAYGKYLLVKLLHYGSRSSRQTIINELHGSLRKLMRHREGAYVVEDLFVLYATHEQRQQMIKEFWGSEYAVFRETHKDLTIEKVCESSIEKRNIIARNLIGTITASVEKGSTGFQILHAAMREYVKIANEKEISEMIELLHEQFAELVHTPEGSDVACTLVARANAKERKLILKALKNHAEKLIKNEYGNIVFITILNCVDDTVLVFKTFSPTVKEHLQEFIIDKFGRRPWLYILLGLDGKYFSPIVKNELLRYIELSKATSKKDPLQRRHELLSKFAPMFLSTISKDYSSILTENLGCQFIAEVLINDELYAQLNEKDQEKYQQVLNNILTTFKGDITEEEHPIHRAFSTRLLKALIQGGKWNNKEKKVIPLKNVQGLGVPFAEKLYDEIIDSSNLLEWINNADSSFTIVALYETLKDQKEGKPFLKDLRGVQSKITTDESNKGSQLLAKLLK

B1: ASH1 E3-118 (structured_RNA)
RNA: GAGACAGUAGAGAAUUGAUACAUGGAUAACUGAAUCUCUUUCAACUAAUAAGAGACAUUAUCACGAAACAAUUGUACAUUUCUCUCCUUGUCUGUGCUAAAUAAACUACAAAUAAAAA
For B1, the binding result in the data set with Puf6p and with She3p was “binds” throughout.
